From the supplement of paper PMC9112550, “Optimization of the antimicrobial peptide Bac7 by deep mutational scanning” (BMC Biology, 2022)

Test system: Escherichia coli TOP10
Assay: shrunken log2 fold change of peptide-encoding DNA abundance (4.5 h post-induction vs induction); higher = less antimicrobial activity (less host growth inhibition)
Details: time post-induction: 4.5 h; library: site-saturation at positions 5, 18, 19, 20
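Note: peptides expressed intracellularly from a pBAD plasmid library in pooled LB shake-flask culture, induced with 0.3% L-arabinose, DNA abundance read by NGS, three biological replicates, DESeq2 with apeglm shrinkage.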

Sequence: RRIRRRPPRLPRPRPRPTAPPRP
- shrunken log2 fold change: 0.583

Sequence: RRIRMRPPRLPRPRPRPGERPRP
- shrunken log2 fold change: 0.772

Sequence: RRIRNRPPRLPRPRPRPLIWPRP
- shrunken log2 fold change: 0.0774

Sequence: RRIRSRPPRLPRPRPRPFYLPRP
- shrunken log2 fold change: -0.818

Sequence: RRIRGRPPRLPRPRPRPHLLPRP
- shrunken log2 fold change: 0.306

Sequence: RRIRPRPPRLPRPRPRPPFMPRP
- shrunken log2 fold change: 0.315

Sequence: RRIRARPPRLPRPRPRPLYPPRP
- shrunken log2 fold change: -0.221

Sequence: RRIRCRPPRLPRPRPRPADNPRP
- shrunken log2 fold change: -0.219

Sequence: RRIRTRPPRLPRPRPRPRVEPRP
- shrunken log2 fold change: 0.073

Sequence: RRIRHRPPRLPRPRPRPSTCPRP
- shrunken log2 fold change: -0.0299

Sequence: RRIRPRPPRLPRPRPRPYGEPRP
- shrunken log2 fold change: 0.0864

Sequence: RRIRNRPPRLPRPRPRPNRVPRP
- shrunken log2 fold change: -0.0281

Sequence: RRIRDRPPRLPRPRPRPWVWPRP
- shrunken log2 fold change: 0.702

Sequence: RRIRLRPPRLPRPRPRPQQCPRP
- shrunken log2 fold change: 0.146

Sequence: RRIRQRPPRLPRPRPRPFTKPRP
- shrunken log2 fold change: -0.0312

Sequence: RRIRRRPPRLPRPRPRPPFMPRP
- shrunken log2 fold change: 0.22

Sequence: RRIRHRPPRLPRPRPRPAELPRP
- shrunken log2 fold change: -0.00261

Sequence: RRIRTRPPRLPRPRPRPGMDPRP
- shrunken log2 fold change: 0.0475

Sequence: RRIRDRPPRLPRPRPRPNCFPRP
- shrunken log2 fold change: 0.156

Sequence: RRIRERPPRLPRPRPRPEMCPRP
- shrunken log2 fold change: -0.0143

Sequence: RRIRQRPPRLPRPRPRPTPCPRP
- shrunken log2 fold change: -0.138

Sequence: RRIRYRPPRLPRPRPRPGGKPRP
- shrunken log2 fold change: 0.0336

Sequence: RRIRSRPPRLPRPRPRPTWFPRP
- shrunken log2 fold change: -0.216

Sequence: RRIRSRPPRLPRPRPRPKYGPRP
- shrunken log2 fold change: -0.884

Sequence: RRIRMRPPRLPRPRPRPFPHPRP
- shrunken log2 fold change: -0.0309

Sequence: RRIRERPPRLPRPRPRPMSKPRP
- shrunken log2 fold change: -0.439

Sequence: RRIRQRPPRLPRPRPRPPGLPRP
- shrunken log2 fold change: 0.127

Sequence: RRIRARPPRLPRPRPRPNKKPRP
- shrunken log2 fold change: -0.00857

Sequence: RRIRWRPPRLPRPRPRPTWYPRP
- shrunken log2 fold change: 0.27

Sequence: RRIRQRPPRLPRPRPRPTVKPRP
- shrunken log2 fold change: -0.096

Sequence: RRIRERPPRLPRPRPRPPRQPRP
- shrunken log2 fold change: 0.26

Sequence: RRIRFRPPRLPRPRPRPHYYPRP
- shrunken log2 fold change: -0.524

Sequence: RRIRFRPPRLPRPRPRPCGIPRP
- shrunken log2 fold change: -0.168

Sequence: RRIRDRPPRLPRPRPRPNLFPRP
- shrunken log2 fold change: 0.0627

Sequence: RRIRLRPPRLPRPRPRPMIMPRP
- shrunken log2 fold change: -0.159

Sequence: RRIRSRPPRLPRPRPRPEWHPRP
- shrunken log2 fold change: 0.0472

Sequence: RRIRMRPPRLPRPRPRPWSFPRP
- shrunken log2 fold change: -0.33

Sequence: RRIRWRPPRLPRPRPRPGYEPRP
- shrunken log2 fold change: 0.00228

Sequence: RRIRTRPPRLPRPRPRPRNCPRP
- shrunken log2 fold change: -0.176

Sequence: RRIRMRPPRLPRPRPRPYYKPRP
- shrunken log2 fold change: -0.611

Sequence: RRIRPRPPRLPRPRPRPIESPRP
- shrunken log2 fold change: -0.252

Sequence: RRIRWRPPRLPRPRPRPGTMPRP
- shrunken log2 fold change: -0.153

Sequence: RRIRVRPPRLPRPRPRPTYVPRP
- shrunken log2 fold change: 0.00864

Sequence: RRIRARPPRLPRPRPRPEWRPRP
- shrunken log2 fold change: 0.37

Sequence: RRIRERPPRLPRPRPRPVQHPRP
- shrunken log2 fold change: -0.402

Sequence: RRIRCRPPRLPRPRPRPKVKPRP
- shrunken log2 fold change: -0.133

Sequence: RRIRNRPPRLPRPRPRPEWIPRP
- shrunken log2 fold change: -0.16

Sequence: RRIRPRPPRLPRPRPRPSTDPRP
- shrunken log2 fold change: -0.207

Sequence: RRIRIRPPRLPRPRPRPLRPPRP
- shrunken log2 fold change: 0.583

Sequence: RRIRVRPPRLPRPRPRPDGLPRP
- shrunken log2 fold change: 0.0431

Sequence: RRIRLRPPRLPRPRPRPLFMPRP
- shrunken log2 fold change: -0.546

Sequence: RRIRPRPPRLPRPRPRPYYPPRP
- shrunken log2 fold change: -0.439

Sequence: RRIRNRPPRLPRPRPRPRQEPRP
- shrunken log2 fold change: 0.00772

Sequence: RRIRCRPPRLPRPRPRPYEVPRP
- shrunken log2 fold change: -0.0152

Sequence: RRIRFRPPRLPRPRPRPLKPPRP
- shrunken log2 fold change: -0.178

Sequence: RRIRYRPPRLPRPRPRPKDSPRP
- shrunken log2 fold change: -0.0869

Sequence: RRIRQRPPRLPRPRPRPFHKPRP
- shrunken log2 fold change: -0.0921

Sequence: RRIRCRPPRLPRPRPRPRNYPRP
- shrunken log2 fold change: -0.094

Sequence: RRIRARPPRLPRPRPRPKWGPRP
- shrunken log2 fold change: 0.418

Sequence: RRIRYRPPRLPRPRPRPCVWPRP
- shrunken log2 fold change: -0.0563

Sequence: RRIRKRPPRLPRPRPRPFMCPRP
- shrunken log2 fold change: 0.0653

Sequence: RRIRERPPRLPRPRPRPHMPPRP
- shrunken log2 fold change: -0.197

Sequence: RRIRLRPPRLPRPRPRPEFCPRP
- shrunken log2 fold change: 0.11

Sequence: RRIRRRPPRLPRPRPRPHINPRP
- shrunken log2 fold change: -0.432

Sequence: RRIRNRPPRLPRPRPRPKPKPRP
- shrunken log2 fold change: 0.211

Sequence: RRIRLRPPRLPRPRPRPHKRPRP
- shrunken log2 fold change: 0.0273

Sequence: RRIRMRPPRLPRPRPRPHLLPRP
- shrunken log2 fold change: 0.137

Sequence: RRIRVRPPRLPRPRPRPYNEPRP
- shrunken log2 fold change: -0.429

Sequence: RRIRCRPPRLPRPRPRPHELPRP
- shrunken log2 fold change: -0.336

Sequence: RRIRCRPPRLPRPRPRPHWHPRP
- shrunken log2 fold change: -0.42

Sequence: RRIRFRPPRLPRPRPRPKDEPRP
- shrunken log2 fold change: -0.13

Sequence: RRIRNRPPRLPRPRPRPEIRPRP
- shrunken log2 fold change: 0.126

Sequence: RRIRRRPPRLPRPRPRPPGNPRP
- shrunken log2 fold change: 0.428

Sequence: RRIRNRPPRLPRPRPRPEHSPRP
- shrunken log2 fold change: 0.0507

Sequence: RRIRGRPPRLPRPRPRPICCPRP
- shrunken log2 fold change: 0.8

Sequence: RRIRHRPPRLPRPRPRPRMTPRP
- shrunken log2 fold change: 0.19

Sequence: RRIRCRPPRLPRPRPRPTKTPRP
- shrunken log2 fold change: 0.137

Sequence: RRIRDRPPRLPRPRPRPMYYPRP
- shrunken log2 fold change: -0.535

Sequence: RRIRTRPPRLPRPRPRPTPDPRP
- shrunken log2 fold change: 0.306

Sequence: RRIRYRPPRLPRPRPRPKNYPRP
- shrunken log2 fold change: -1.38

Sequence: RRIRKRPPRLPRPRPRPCQIPRP
- shrunken log2 fold change: 0.0947

Sequence: RRIRMRPPRLPRPRPRPVFSPRP
- shrunken log2 fold change: 0.314

Sequence: RRIRGRPPRLPRPRPRPMQMPRP
- shrunken log2 fold change: 1.5

Sequence: RRIRMRPPRLPRPRPRPYSPPRP
- shrunken log2 fold change: -0.199

Sequence: RRIRFRPPRLPRPRPRPSTNPRP
- shrunken log2 fold change: -0.147

Sequence: RRIRFRPPRLPRPRPRPKASPRP
- shrunken log2 fold change: 0.157

Sequence: RRIRVRPPRLPRPRPRPGPGPRP
- shrunken log2 fold change: 0.298

Sequence: RRIRNRPPRLPRPRPRPFNQPRP
- shrunken log2 fold change: -0.408

Sequence: RRIRTRPPRLPRPRPRPLCHPRP
- shrunken log2 fold change: -0.175

Sequence: RRIRYRPPRLPRPRPRPHMYPRP
- shrunken log2 fold change: -0.327

Sequence: RRIRERPPRLPRPRPRPENYPRP
- shrunken log2 fold change: 2

Sequence: RRIRKRPPRLPRPRPRPVNGPRP
- shrunken log2 fold change: 0.0996

Sequence: RRIRDRPPRLPRPRPRPMNEPRP
- shrunken log2 fold change: 0.202

Sequence: RRIRNRPPRLPRPRPRPQGWPRP
- shrunken log2 fold change: 0.114

Sequence: RRIRARPPRLPRPRPRPVPFPRP
- shrunken log2 fold change: 0.0816

Sequence: RRIRRRPPRLPRPRPRPCICPRP
- shrunken log2 fold change: -0.0935

Sequence: RRIRIRPPRLPRPRPRPCYHPRP
- shrunken log2 fold change: -0.265

Sequence: RRIRPRPPRLPRPRPRPPNKPRP
- shrunken log2 fold change: 0.139

Sequence: RRIRNRPPRLPRPRPRPNDAPRP
- shrunken log2 fold change: -0.221

Sequence: RRIRDRPPRLPRPRPRPARKPRP
- shrunken log2 fold change: 0.574

Sequence: RRIRQRPPRLPRPRPRPTYWPRP
- shrunken log2 fold change: -0.247

Sequence: RRIRIRPPRLPRPRPRPFFCPRP
- shrunken log2 fold change: -0.106

Sequence: RRIRMRPPRLPRPRPRPDCNPRP
- shrunken log2 fold change: 2.08

Sequence: RRIRRRPPRLPRPRPRPTFEPRP
- shrunken log2 fold change: 0.358

Sequence: RRIRFRPPRLPRPRPRPCEPPRP
- shrunken log2 fold change: 0.0391

Sequence: RRIRKRPPRLPRPRPRPDFVPRP
- shrunken log2 fold change: 0.0472

Sequence: RRIRMRPPRLPRPRPRPRPKPRP
- shrunken log2 fold change: 1.07

Sequence: RRIRQRPPRLPRPRPRPVIEPRP
- shrunken log2 fold change: 0.162

Sequence: RRIRVRPPRLPRPRPRPWDSPRP
- shrunken log2 fold change: -0.181
